Assay [1] addresses recombinant hemagglutinin (HA) derived from A/Thailand/CU44/2006, wild type (influenza A virus A/Thailand/CU44/2006). The experiment in a line: […]; 20 mM Tris-HCl pH 8.0, 100 mM NaCl.
Assay [2] has the same target. The experiment in a line: SEC-MALS.

Among the data in publication PMC7508890 are stoichiometry N values, retold here.

In the case of “recombinant hemagglutinin (HA) derived from A/Thailand/CU44/2006, wild type (natural protein)”, the results for the stoichiometry N in assay [1] and in assay [2] were 3 and 9 HA trimers, respectively.
